Tests used:
[1] = target: T1, soluble recombinant rat NgR, amino acids 27 through 450, with 6xHis tag (rat); test: ELISA, rat NgR coated 0.2 µg/well, anti-mouse-HRP, TMB
T1 construct: 2a; made in HEK293F cells; also called Rat NgR 6x His; rNgR
T1 chain: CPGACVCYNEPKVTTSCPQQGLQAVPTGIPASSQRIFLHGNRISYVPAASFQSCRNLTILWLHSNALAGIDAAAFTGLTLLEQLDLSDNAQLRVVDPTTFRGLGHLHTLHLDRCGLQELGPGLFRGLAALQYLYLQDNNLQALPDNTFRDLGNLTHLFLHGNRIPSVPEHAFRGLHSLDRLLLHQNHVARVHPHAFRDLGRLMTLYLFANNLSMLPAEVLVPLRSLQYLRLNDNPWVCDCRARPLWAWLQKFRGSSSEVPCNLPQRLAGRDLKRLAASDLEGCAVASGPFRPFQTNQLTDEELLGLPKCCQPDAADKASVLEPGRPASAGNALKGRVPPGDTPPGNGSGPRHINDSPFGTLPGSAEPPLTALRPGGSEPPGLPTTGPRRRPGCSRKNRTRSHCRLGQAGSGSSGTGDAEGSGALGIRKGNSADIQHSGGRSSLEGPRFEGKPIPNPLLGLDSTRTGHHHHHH
Description: (§1) To determine the specificity of the monoclonal antibodies produced in Example 1, an ELISA using NgR-Fc (a fusion protein comprising amino acids Met 1 to Ser 447 of the human NgR and a human Fc fragment (R&D Systems)) and rat NgR (SEQ ID NO. 2a), was performed. Both ligands were immobilized on 96-well microtiter plates (Nunc Maxisorb; 0.2 μg/well). As a blocking reagent 2% bovine serum albumin (BSA) in Tris-HCL, pH 7.2 was used for 2 h at room temperature. The monoclonal antibodies were used in concentrations starting at 10,000 ng/ml. Bound antibodies were detected with a secondary anti-mouse antibody labeled with horseradish peroxidase (Sigma) and developed using 3,3′,5,5′-tetramethylbenzidine substrate (TMB, Pierce) under standard conditions. mAb50 and mAb51 specifically bound to human NgR. […] In similar experiments, mAb50 and mAb51 also specifically bound to a polypeptide consisting of amino acids of the rat NgR.

[2] = target: T2, human recombinant NgR/Fc chimera (R&D Systems, Cat. Number 1208-NG) (human, UniProt Q9BZR6 27-447); test: ELISA, human NgR-Fc coated 0.2 µg/well
T2 construct: range 1-447; Bought from R&D Systems; also called hNgR-Fc; human NgR-Fc; not shown: human Fc fragment
T2 sequence (looked up): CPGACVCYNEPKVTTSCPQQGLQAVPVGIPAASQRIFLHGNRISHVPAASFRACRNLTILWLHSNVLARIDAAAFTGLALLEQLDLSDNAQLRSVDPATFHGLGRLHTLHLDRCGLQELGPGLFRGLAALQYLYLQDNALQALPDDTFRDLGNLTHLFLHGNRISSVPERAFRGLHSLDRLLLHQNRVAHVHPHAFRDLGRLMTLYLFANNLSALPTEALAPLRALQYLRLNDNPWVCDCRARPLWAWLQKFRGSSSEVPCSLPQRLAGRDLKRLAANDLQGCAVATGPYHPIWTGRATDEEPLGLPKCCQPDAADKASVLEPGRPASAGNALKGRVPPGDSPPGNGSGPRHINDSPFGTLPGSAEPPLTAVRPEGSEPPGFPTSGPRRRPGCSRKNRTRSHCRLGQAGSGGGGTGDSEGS

[3] = target: T2, human recombinant NgR/Fc chimera (R&D …); test: ELISA, human NgR-Fc coated 0.2 µg/well, anti-mouse-HRP, TMB
Description: as §1

[4] = target: T1, soluble recombinant rat NgR, amino …; test: ELISA, rat NgR coated 0.2 µg/well
Description: as §1

[5] = target: T1, soluble recombinant rat NgR, amino …; test: not stated
[6] = target: T2, human recombinant NgR/Fc chimera (R&D …); test: competition ELISA, human NgR-Fc coated 0.2 µg/well, blocked ligand AP-Nogo66 at 0.15 nM, AttoPhos, RFU (30min-0min)
Description: To further characterize the monoclonal antibodies a competition assay similar to the binding assay of Example 2 was used to test the ability of the mAbs produced in Example 1 to inhibit AP-Nogo66 binding to human NgR-Fc. Human NgR-Fc (0.2 μg/well) was immobilized on 96-well microtiter plates (Nunc Maxisorb) in 50 mM Na-carbonate buffer pH 9 over night at 4° C. followed by a 2 h blocking step with 2% BSA in Tris-HCL, pH 7.2 at room temperature. The wells received a constant concentration of AP-Nogo66 (final concentration 0.15 nM in Tris-HCL, pH 7.2 with 0.1% BSA) and increasing concentrations of the mAbs. Plates were incubated for 90 min at room temperature. During each incubation step plates were washed with washing buffer (10 mM Tris-HCl, pH7.2 and 0.05% Tween20). Binding of AP-Nogo66 was detected with the AttoPhos substrate (Roche) and the fluorescence units were measured in the Polarstar (BMG) instrument.

[7] = target: T2, human recombinant NgR/Fc chimera (R&D …); test: Biacore, antibody captured, hNgR-Fc chimera as antigen

EC50 (read off the curve) [1]: ~0.03 µg/mL
EC50 [2]: < 0.02 µg/mL
EC50 (read off the curve) [3]: ~0.006 µg/mL
EC50 [4]: < 0.02 µg/mL
IC50 [5]: ~0.03 nM
IC50 (read off the curve) [6]: ~2 nM
Kd [7]: 0.108 nM
koff [7]: 5.88e-05 s⁻¹
kon [7]: 544000 M⁻¹ s⁻¹
B1: mAb51 (antibody, IgG2a, V domains shown)
VH: QVQLQQPGAELVKPGASVKLSCKASGYTFITYWMHWMKQRPGQGLEWIGEIDPSDSYTDYNQKFKGKATLTVDKSSSTAYMQLSSLTSEDSAVYYCARGSNVLYVLDYWGQGTSVTVSS
VL: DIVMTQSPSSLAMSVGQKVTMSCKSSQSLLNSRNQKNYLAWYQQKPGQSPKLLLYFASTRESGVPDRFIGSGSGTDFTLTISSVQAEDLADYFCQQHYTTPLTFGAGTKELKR
notes: also called Antibody Clone 51; ATCC No. PTA-8384
